# From patent publication US20020055130A1, “Method and product for regulating apoptosis” (National Jewish Center for Immunology and Respiratory …, priority 1997, published 2002)
# Key:
# Assay type in all cases: cell-based, Human
# [1] = tested on: MEKK1; assay: Immunoblot of cleavage fragments of transfected HA-tagged MEKK1 in HEK293 cells; conditions: for effect on proteolysis of MEKK1: co-expression with MEKK1
# Text: The full length cDNA encoding mouse MEKK1 was modified by addition of the HA-tag sequence ([…]) (SEQ ID NO: 12) at its NH2-terminus and inserted into the expression plasmid pCEP4 (Invitrogen), resulting in plasmid MEKK1.cp4. The MEKK1 sequences DTVD (amino acids 871-874) and DEVE (amino acids 857-860) in MEKK1.cp4 were substituted with alanines using a PCR strategy. The resulting plasmids were named DTVD_A.cp4 and DEVE_A.cp4. The cDNAs for CrmA (Pickup et al., 1986), p35 (Cartier et al., 1994), JNK1-APF (Dérijard et al., 1994) and JNK2-APF (Kallunki et al., 1994) were subcloned in pCEP4 in which the hygromycin resistance gene had been removed, resulting in plasmids CrmA.cp_, p35.cp_, JNK1_APF.cp and JNK2_APF.cp_. Plasmid pCDNA—3.cp4 is the result of the ligation of pCEP4 and pCDNA-3.
# 200-400 μg cell lysate protein was subjected to SDS-9% PAGE and transferred to nitrocellulose membranes. Blots were performed exactly as described (Widmann et al., 1995). To detect HA-tagged proteins, the mouse monoclonal antibody 12CA5 (Babco) was used as the primary antibody, followed by a rabbit anti-mouse antibody (Cappel). HRP-conjugated protein A at a 1/5000 dilution (Zymed) and ^125I-protein A at a 1/500 dilution (Dupont NEN) were then used for enhanced chemiluminescence (ECL) detection and for quantification using the phosphorimager. To detect MEKK1, 3 different ploclonal antisera were used as primary antibodies, followed by ECL detection using HRP-protein A (see above). These sera were generated by injecting rabbits with GST proteins fused with different portions of the MEKK1 protein.
# [2] = tested on: c-Jun kinase (JNK); assay: c-Jun kinase assay, transfected HEK293 cells; conditions: for effect on activation of the JNKs by MEKK1: co-expression with MEKK1
# Protocol: (§1) Lysis buffer (70 mM β-glycerophosphate, 1 mM EGTA, 100 μM Na3VO4, 1 mM DTT, 2 mM MgCl2, 0.5% Triton-X100, 20 μg/ml aprotinin) was added to cells 15-24 hours after transfection. Cellular debris was removed by centrifugation at 8,000xg for 5 min. Protein concentration was normalized by Bradford assay using BSA as standard.
# c-Jun kinase (JNK) activity was measured using a solid phase kinase assay in which glutathione S-transferase-c-Jun(1-79) (GST-Jun) bound to glutathione-Sepharose 4B beads was used to affinity-purify JNK from cell lysates as described (Gardner and Johnson, 1996; Hibi et al., 1993). Alternatively, JNKI or JNK2 were immunoprecipitated with isoform specific antibodies (Santa Cruz Biotechnology) and GST-Jun used as substrate in an in vitro kinase assay (Hibi et al., 1993). Quantitation of the phosphorylation of GST-Jun was performed with a Phosphorlmager.
# [3] = tested on: ERK2; assay: ERK2 immunoprecipitation kinase assay, transfected HEK293 cells; conditions: co-expression with MEKK1
# Protocol: as §1
# ERK2 was immunoprecipitated as described above for the JNK isoforms using the ERK2 (C-14) antibody (Santa Cruz Biotechnology). The beads were washed twice with 1 ml lysis buffer and twice with 1 ml lysis buffer without Triton-X100. […] The samples were washed thrice for 5 min each in 75 mM phosphoric acid and once for 2 min in acetone, air-dried, and their radioactivity determined in a β counter.
# [4] = tested on: HEK293 cells; assay: MEKK1 staining and TdT-mediated dUTP incorporation (DNA fragmentation) in transfected cells; conditions: for diminution of apoptotic cells induced by MEKK1 expression: co-expression with MEKK1
# Protocol: Human embryonal kidney 293 cells (HEK293) stably expressing the EBNA-1 protein from Epstein-Barr virus (Invitrogen) were grown in Dulbecco's modified Eagle's medium (DMEM) supplemented with 100 U/ml penicillin/streptomycin and containing 10% bovine calf serum (BCS). The cells were transfected using lipofectamine (Gibco).
# Cells were grown on glass coverslips and transfected using lipofectamine. Two days after transfection, the medium was removed and the cells were fixed in 2% paraformaldehyde, 3% sucrose in phosphate buffered saline (PBS) for 10 min at room temperature. Following three washes with PBS, the cells were permeabilized for 10 min with 2% Triton-X100 in PBS. After three PBS washes, the cells were blocked with filtered cultured medium for 15 min. The coverslips were then incubated 1 hour in TdT reaction mix (200 mM potassium cacodylate, 25 mM Tris.HCl, pH 6.6, 250 μg/ml BSA, 5 mM CoCl2, 0.25 U/μl TdT [Boehringer], 10 μM biotin-dUTP [Boehringer]) at 37° C. in a humidifed atmosphere. […] The coverslips were then washed 6× over a 30 min period with PBS and incubated 1 hour at room temperature with a 1/1000 dilution in filtered culture medium of a donkey anti-rabbit, Cy^3-conjugated, antibody (Jackson Immunological) mixed with 5 μg/ml streptavidin conjugated with FITC (Jackson Immunological). The coverslips were washed 6× with PBS and incubated overnight in PBS before being mounted in 20 mg/ml o-phenyldiamine-diHCl (Sigma) in 0.1 M Tris pH 8.5, 90% glycerol. Images were taken using a Leica DMRXA microscope and analyzed with the SlideBook v2.0 software (Intelligent Imaging Innovations, Denver). The subcellular localization of endogenous MEKK1 observed with the anti-COOH-terminal MEKK1 antibody was identical to that observed with a second antibody recognizing the NH2-terminal portion of the MEKK1 protein.
Molecule,effect on proteolysis of MEKK1 [1],effect on activation of the JNKs by MEKK1 [2],effect on activation of ERK2 by MEKK1 [3],diminution of apoptotic cells induced by MEKK1 expression [4],diminution of apoptotic cells induced by MEKK1 expression ([4]; listed as JNKI-APF),DNA fragmentation ([4]; expression in HEK293 cells),MEKK1 cleavage fragments generated ([1]; mutants transfected into HEK293 cells),JNK activation ([2]; expression in HEK293 cells)
"JNK2-APF: inhibitory mutant of JNK2 (protein, UniProt P45984 1-424, looked up, variant T183A Y185F) Mitogen-activated protein …: MSDSKCDSQFYSVQVADSTFTVLKRYQQLKPIGSGAQGIVCAAFDTVLGINVAVKKLSRPFQNQTHAKRAYRELVLLKCVNHKNIISLLNVFTPQKTLEEFQDVYLVMELMDANLCQVIHMELDHERMSYLLYQMLCGIKHLHSAGIIHRDLKPSNIVVKSDCTLKILDFGLARTACTNFMMAPFVVTRYYRAPEVILGMGYKENVDIWSVGCIMGELVKGCVIFQGTDHIDQWNKVIEQLGTPSAEFMKKLQPTVRNYVENRPKYPGIKFEELFPDWIFPSESERDKIKTSQARDLLSKMLVIDPDKRISVDEALRHPYITVWYDPAEAEAPPPQIYDAQLEEREHAIEEWKELIYKEVMDWEERSKNGVVKDQPSDAAVSSNATPSQSSSINDISSMSTEQTLASDTDSSLDASTGPLEGCR",little effect on the proteolysis of the MEKK1 protein,unaffected,unaffected,,,,,
"JNK1-APF: inhibitory mutant of JNK1 (protein, UniProt P45983 1-427, looked up, variant T183A Y185F) Mitogen-activated protein …: MSRSKRDNNFYSVEIGDSTFTVLKRYQNLKPIGSGAQGIVCAAYDAILERNVAIKKLSRPFQNQTHAKRAYRELVLMKCVNHKNIIGLLNVFTPQKSLEEFQDVYIVMELMDANLCQVIQMELDHERMSYLLYQMLCGIKHLHSAGIIHRDLKPSNIVVKSDCTLKILDFGLARTAGTSFMMAPFVVTRYYRAPEVILGMGYKENVDLWSVGCIMGEMVCHKILFPGRDYIDQWNKVIEQLGTPCPEFMKKLQPTVRTYVENRPKYAGYSFEKLFPDVLFPADSEHNKLKASQARDLLSKMLVIDASKRISVDEALQHPYINVWYDPSEAEAPPPKIPDKQLDEREHTIEEWKELIYKEVMDLEERTKNGVIRGQPSPLGAAVINGSQHPSSSSSVNDVSSMSTDPTLASDTDSSLEAAAGPLGCCR",little effect on the proteolysis of the MEKK1 protein,unaffected,unaffected,no effect,no protective effect,,,
"DEVE→A: MEKK1 mutant with DEVE (amino acids 857-860) substituted with alanines (protein, UniProt P53349 2-1493, looked up, variant D857A E858A V859A E860A) Mitogen-activated protein …: AAAAGDRASSSGFPGAAAASPEAGGGGGGGGALQGSGAPAAGAAGLLREPGSAGRERADWRRRQLRKVRSVELDQLPEQPLFLAAASPPCPSTSPSPEPADAAAGASRFQPAAGPPPPGAASRCGSHSAELAAARDSGARSPAGAEPPSAAAPSGREMENKETLKGLHKMEDRPEERMIREKLKATCMPAWKHEWLERRNRRGPVVVKPIPIKGDGSEVNNLAAEPQGEGQAGSAAPAPKGRRSPSPGSSPSGRSVKPESPGVRRKRVSPVPFQSGRITPPRRAPSPDGFSPYSPEETSRRVNKVMRARLYLLQQIGPNSFLIGGDSPDNKYRVFIGPQNCSCGRGAFCIHLLFVMLRVFQLEPSDPMLWRKTLKNFEVESLFQKYHSRRSSRIKAPSRNTIQKFVSRMSNSHTLSSSSTSTSSSENSIKDEEEQMCPICLLGMLDEESLTVCEDGCRNKLHHHCMSIWAEECRRNREPLICPLCRSKWRSHDFYSHELSSPVESPASLRAVQQPSSPQQPVAGSQRRNQESSFNLTHFGTQQIPSAYKDLAEPWIQVFGMELVGCLFSRNWNVREMALRRLSHDVSGALLLANGESTGNSGGGSGGSLSAGAASGSSQPSISGDVVEACCSVLSIVCADPVYKVYVAALKTLRAMLVYTPCHSLAERIKLQRLLRPVVDTILVKCADANSRTSQLSISTVLELCKGQAGELAVGREILKAGSIGVGGVDYVLSCILGNQAESNNWQELLGRLCLIDRLLLEFPAEFYPHIVSTDVSQAEPVEIRYKKLLSLLTFALQSIDNSHSMVGKLSRRIYLSSARMVTAVPAVFSKLVTMLNASGSTHFTRMRRRLMAIAAAAAIAEVIQLGVEDTVDGHQDSLQAVAPTSCLENSSLEHTVHREKTGKGLSATRLSASSEDISDRLAGVSVGLPSSTTTEQPKPAVQTKGRPHSQCLNSSPLSHAQLMFPAPSAPCSSAPSVPDISKHRPQAFVPCKIPSASPQTQRKFSLQFQRNCSEHRDSDQLSPVFTQSRPPPSSNIHRPKPSRPVPGSTSKLGDATKSSMTLDLGSASRCDDSFGGGGNSGNAVIPSDETVFTPVEDKCRLDVNTELNSSIEDLLEASMPSSDTTVTFKSEVAVLSPEKAENDDTYKDDVNHNQKCKEKMEAEEEEALAIAMAMSASQDALPIVPQLQVENGEDIIIIQQDTPETLPGHTKAKQPYREDAEWLKGQQIGLGAFSSCYQAQDVGTGTLMAVKQVTYVRNTSSEQEEVVEALREEIRMMGHLNHPNIIRMLGATCEKSNYNLFIEWMAGGSVAHLLSKYGAFKESVVINYTEQLLRGLSYLHENQIIHRDVKGANLLIDSTGQRLRIADFGAAARLASKGTGAGEFQGQLLGTIAFMAPEVLRGQQYGRSCDVWSVGCAIIEMACAKPPWNAEKHSNHLALIFKIASATTAPSIPSHLSPGLRDVAVRCLELQPQDRPPSRELLKHPVFRTTW",,,,,,induced DNA fragmentation,"cleaved into fragments A, B, C and D",activated JNK to the same level as wild type MEKK1
